Test results as given in paper PMC8163098.

Key:
[1] = biological target: mouse 80S ribosomes (monosomes) and polysomes (mouse (endogenous in neocortex and Neuro2a)) (UniProt P84099); assay: cryo-EM structure
[2] = biological target: rabbit reticulocyte 60S ribosomal subunit (rabbit (endogenous in reticulocyte lysate)) (UniProt G1SV32); assay: co-sedimentation

| overall occupancy [1] [%] | percent of ribosomes with Ebp1 bound [1] [%] | percent of ribosomes with Ebp1 bound, each of the five sub-states [1] [%] | Ebp1 concentration at saturated binding (100 nM 60S) [2] [nM] | Kd [2] [nM] | Substance |
| --- | --- | --- | --- | --- | --- |
| 52 | 48 | 50 | – | – | ErbB3-binding protein 1 (Ebp1), endogenous full-length mouse protein (from UniProt P50580-1 1-394) (natural protein) |
| – | – | – | 200 | 124 | polyhistidine-tagged full-length recombinant Ebp1 (Ebp1-His) (from UniProt P50580 1-394) (natural protein) |
